Data on 1 molecule can be found in US20120100561A1 (published 2012).

The assay deals with T1, Flag-PKN3 wt (N-terminal Flag epitope-tagged full-length kinase active human PKN3) (human, UniProt Q6P5Z2 1-889).
T1 construct: Expressed from pcDNA3 in HEK293T or PC3 cells and pulled down with anti-Flag M2 resin; The kinase-dead version carries K588R; also called Flag-tagged PKN3; kinase-active form of PKN3
The experiment in a line: anti-Flag M2 co-immunoprecipitation from transfected HEK293T cells, Western blot. Here is the method: Thus, PKN3, RhoC and PDK1 form a ternary complex (“PPRC complex.”)
For immunoprecipitations with Flag (FIG. 4B), HEK293T cells (5×10⁵ cells/10-cm tissue culture dish) were either singly transfected or cotransfected with the indicated plasmids (Flag-PKN3 wt [full-length kinase active], Flag-PKN3 kd [kinase-dead PKN3], Myc-RhoA, Myc-RhoB or Myc-RhoC) by FUGENE® transfection reagent. After 6 hours of incubation at 37° C. in a 5% CO₂ incubator, cells were washed twice in serum-free Dulbecco's modified Eagle's medium (DMEM), and fresh medium (DMEM, 10% fetal bovine serum) was added to the cells for a further 48 h of incubation. Cells were washed with phosphate-buffered saline (PBS) and lysed in 0.5 ml of lysis buffer (50 mM Tris-HCl [pH 7.5], 150 mM NaCl, 10 mM β-glycerolphosphate, 10% glycerol, 1% Triton X-100, 1 mM Na₃VO₄, 1 mM NaF, and protease inhibitors [Roche Molecular Biochemicals]) for 30 minutes on ice. […] The beads were then washed three times with TBS buffer (50 mM Tris-HCl [pH 7.5], 150 mM NaCl), and bound proteins were eluted with TBS buffer containing 10% glycerol, 1 mM DTT and 200 μg of Flag peptide (Sigma)/ml. The bound products were visualized by Western blot analysis (FIG. 4).

T1 sequence (Q6P5Z2 other isoform, or with tags, fused parts or gaps limits assumed): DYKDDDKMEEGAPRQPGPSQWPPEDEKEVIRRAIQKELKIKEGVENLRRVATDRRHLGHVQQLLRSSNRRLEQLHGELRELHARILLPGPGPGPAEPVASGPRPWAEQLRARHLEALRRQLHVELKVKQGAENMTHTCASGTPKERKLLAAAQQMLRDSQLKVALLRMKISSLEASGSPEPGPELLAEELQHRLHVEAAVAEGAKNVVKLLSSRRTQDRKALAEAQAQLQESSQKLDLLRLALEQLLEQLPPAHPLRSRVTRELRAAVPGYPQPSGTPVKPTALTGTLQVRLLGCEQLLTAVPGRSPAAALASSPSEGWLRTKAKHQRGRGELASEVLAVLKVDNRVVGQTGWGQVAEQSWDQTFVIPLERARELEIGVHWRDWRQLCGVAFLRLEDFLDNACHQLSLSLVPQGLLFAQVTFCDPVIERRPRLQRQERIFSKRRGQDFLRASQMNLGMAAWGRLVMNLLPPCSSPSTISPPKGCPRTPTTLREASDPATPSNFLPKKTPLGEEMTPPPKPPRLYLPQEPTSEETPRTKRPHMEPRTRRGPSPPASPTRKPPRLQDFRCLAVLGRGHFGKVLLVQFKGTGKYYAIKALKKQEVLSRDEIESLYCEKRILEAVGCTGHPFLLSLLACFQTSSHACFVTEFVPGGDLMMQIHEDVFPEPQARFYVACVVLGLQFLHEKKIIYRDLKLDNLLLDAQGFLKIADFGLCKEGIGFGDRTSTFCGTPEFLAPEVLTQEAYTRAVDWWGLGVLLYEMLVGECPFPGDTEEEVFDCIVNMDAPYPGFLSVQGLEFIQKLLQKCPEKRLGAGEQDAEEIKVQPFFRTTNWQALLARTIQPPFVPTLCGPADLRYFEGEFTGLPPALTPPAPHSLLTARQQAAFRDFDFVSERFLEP

B1: phosphoinositide-dependent kinase-1 (PDK1) (enzyme, UniProt O15530 1-556, looked up)
chain: MARTTSQLYDAVPIQSSVVLCSCPSPSMVRTQTESSTPPGIPGGSRQGPAMDGTAAEPRPGAGSLQHAQPPPQPRKKRPEDFKFGKILGEGSFSTVVLARELATSREYAIKILEKRHIIKENKVPYVTRERDVMSRLDHPFFVKLYFTFQDDEKLYFGLSYAKNGELLKYIRKIGSFDETCTRFYTAEIVSALEYLHGKGIIHRDLKPENILLNEDMHIQITDFGTAKVLSPESKQARANSFVGTAQYVSPELLTEKSACKSSDLWALGCIIYQLVAGLPPFRAGNEYLIFQKIIKLEYDFPEKFFPKARDLVEKLLVLDATKRLGCEEMEGYGPLKAHPFFESVTWENLHQQTPPKLTAYLPAMSEDDEDCYGNYDNLLSQFGCMQVSSSSSSHSLSASDTGLPQRSGSNIEQYIHDLDSNSFELDLQFSEDEKRLLLEKQAGGNPWHQFVENNLILKMGPVDKRKGLFARRRQLLLTEGPHLYYVDPVNKVLKGEIPWSQELRPEAKNFKTFFVHTPNRTYYLMDPSGNAHKWCRKIQEVWRQRYQSHPDAAVQ
notes: It co-precipitated with Flag-PKN3 from cell lysates
Take B1: the binding result is “binds”.
